Reference: article PMC6392133, “Structure and Catalytic Mechanism of a Bacterial Friedel–Crafts Acylase” (Chembiochem, 2018)
Values belong to the compound of their own block, whether it stands above or below them.

How the values were obtained:
[1] = target: T1, PpATase (multicomponent acyltransferase, PhlA/PhlB/PhlC) (Pseudomonas protegens, UniProt Q4K420); assay: X-ray crystal structure ([…] Å) of crystal soaked with MAPG; assay type: binding; conditions: PG bound at PhlC active site (4 of 8 PhlC copies) next to acetylated Cys88; formed in the crystal from soaked MAPG
T1 construct: codon-optimized phlA, phlB, phlC ORFs co-expressed in E. coli; size-exclusion purified for crystals, cell-free extract for activity; heterododecamer Phl(A2C2)2B4; with 2,4-diacetylphloroglucinol biosynthesis protein PhlA; 2,4-diacetylphloroglucinol biosynthesis protein PhlB

[2] = target: PhlA subunit of the acyltransferase from Pseudomonas protegens DSM 19095 (PpATase) (Pseudomonas protegens DSM 19095); assay: crystal structure; PpATase complex (PhlA, PhlB, PhlC co-expressed, purified by SEC); hexagonal crystal form (P6_(1)22, untreated, 2.8 Å) and orthorhombic crystal form (P2_(1)2_(1)2_(1), soaked with MAPG, 3.4 Å); crystallised at 289 K; protein-protein interactions in the crystal analysed with the EBI-Pisa server
[3] = target: PhlC subunit of the acyltransferase from Pseudomonas protegens DSM 19095 (PpATase) (Pseudomonas protegens DSM 19095); assay: as above

Compound: Oc1cc(O)cc(O)c1 [PG, benzene‐1,3,5‐triol]
X-ray crystal structure (3.4 Å) of crystal soaked with MAPG [1]: This density was compatible with an acetylated Cys88 residue and with a (deacetylated) PG molecule

stoichiometry N [2]: 2
Compound: PhlA subunit of the acyltransferase from Pseudomonas protegens DSM 19095 (PpATase) (natural protein)

stoichiometry N [3]: 2
Compound: PhlC subunit of the acyltransferase from Pseudomonas protegens DSM 19095 (PpATase) (natural protein)
